Assay results taken from US20140322218A1 (Amgen, published 2014).
Values belong to the binder of their own block, whether it stands above or below them.

Columns and labels:
[1] = target: T1, Human Cadherin-19 (human, UniProt Q9H159 44-772); experiment: FACS, endogenous CDH19 on CHL-1/Colo699
T1 construct: Residues 1-43 are named as the native leader in the construct designations and are left out; also called human CDH19; huCDH19
Method: FACS binding assays were performed to evaluate the binding of the anti-Cadherin-19 receptor specific antibodies to endogenous Cadherin-19 receptor expressed on the CHL-1 tumor cell lines.
FACs assays were performed by incubating hybridoma supernatants with 10,000 to 25,000 cells in PBS/2% Fetal bovine serum/2 mM Calcium Chloride at 4° C. for one hour followed by two washes with PBS/2% Fetal bovine serum/2 mM Calcium Chloride. Cells were then treated with florochrome-labeled secondary antibodies at 4° C. followed by one wash. The cells were resuspended in 50 μl of PBS/2% FBS and antibody binding was analyzed using a FACSCalibur™ instrument.

[2] = target: T2, Cyno Cadherin-19 (cynomolgus monkey (Macaca fascicularis), UniProt Q9H159 44-772 (human entry)); experiment: FACS, recombinant cyno CDH19
T2 construct: also called cyno CDH19; cynomologous CDH-19
T2 chain: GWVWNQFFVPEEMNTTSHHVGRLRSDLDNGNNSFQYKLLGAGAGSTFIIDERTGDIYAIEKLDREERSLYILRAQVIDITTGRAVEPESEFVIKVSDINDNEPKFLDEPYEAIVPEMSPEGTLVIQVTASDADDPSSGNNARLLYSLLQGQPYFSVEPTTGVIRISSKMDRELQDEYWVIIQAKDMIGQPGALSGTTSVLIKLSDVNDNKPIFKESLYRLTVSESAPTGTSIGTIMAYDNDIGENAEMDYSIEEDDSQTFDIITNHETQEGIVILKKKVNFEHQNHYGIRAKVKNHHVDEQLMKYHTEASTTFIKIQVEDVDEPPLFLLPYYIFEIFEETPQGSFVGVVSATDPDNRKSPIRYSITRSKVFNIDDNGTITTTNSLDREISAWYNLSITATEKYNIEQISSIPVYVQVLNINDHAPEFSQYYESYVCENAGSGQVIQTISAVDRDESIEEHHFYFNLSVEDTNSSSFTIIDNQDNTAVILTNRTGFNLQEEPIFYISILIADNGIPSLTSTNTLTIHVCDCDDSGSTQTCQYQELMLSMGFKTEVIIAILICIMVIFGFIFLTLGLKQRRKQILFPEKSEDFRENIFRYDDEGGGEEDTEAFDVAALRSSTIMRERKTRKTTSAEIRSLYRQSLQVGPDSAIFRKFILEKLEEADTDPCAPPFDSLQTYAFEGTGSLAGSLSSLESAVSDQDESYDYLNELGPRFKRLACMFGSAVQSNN

[3] = target: T3, huCDH19(44-772), Flag-tagged, on 293T cells (human, UniProt Q9H159 44-772); experiment: FACS, transfected 293T
T3 construct: Expressed with native leader (1-43) followed by a Flag tag; leader left out; also called Hu EC1-5
From the text: (§1) The experiment included assaying the anti-CDH19 antibodies against mouse Cadherin19 to determine suitability for binning on these human/mouse chimeras.

[4] = target: T4, huCDH19(44-141)::muCDH19(140-770), Flag-tagged, on 293T cells (human/mouse chimera); experiment: FACS, transfected 293T
T4 construct: also called Hu EC1
From the text: as §1

[5] = target: T5, huCDH19(44-249)::muCDH19(248-770), Flag-tagged, on 293T cells (human/mouse chimera); experiment: FACS, transfected 293T
T5 construct: also called Hu EC1-2; C137896
From the text: as §1

[6] = target: T6, muCDH19(44-139)::huCDH19(142-364)::muCDH19(363-770), Flag-tagged, on 293T cells (human/mouse chimera); experiment: FACS, transfected 293T
T6 construct: also called Hu EC2-3; C137847
From the text: as §1

[7] = target: T7, muCDH19(44-247)::huCDH19(250-364)::muCDH19(363-770), Flag-tagged, on 293T cells (human/mouse chimera); experiment: FACS, transfected 293T
T7 construct: also called Hu EC3; C137911
From the text: as §1

[8] = target: T8, (1-43)::FLAG::ckCDH19(44-468)::huCDH19(464-772), on 293T cells (human/chicken chimera); experiment: FACS, transfected 293T;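 note: antibody binding to chimera-expressing cells with 2 mM CaCl2 present, cell-bound Alexa647-labelled antibody read by flow cytometry, mock-transfected cells serving as control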
T8 construct: Entry holds leader (1-43), Flag tag and CDH19 part; leader left out; also called Hu EC5 (chicken backbone)
T8 chain: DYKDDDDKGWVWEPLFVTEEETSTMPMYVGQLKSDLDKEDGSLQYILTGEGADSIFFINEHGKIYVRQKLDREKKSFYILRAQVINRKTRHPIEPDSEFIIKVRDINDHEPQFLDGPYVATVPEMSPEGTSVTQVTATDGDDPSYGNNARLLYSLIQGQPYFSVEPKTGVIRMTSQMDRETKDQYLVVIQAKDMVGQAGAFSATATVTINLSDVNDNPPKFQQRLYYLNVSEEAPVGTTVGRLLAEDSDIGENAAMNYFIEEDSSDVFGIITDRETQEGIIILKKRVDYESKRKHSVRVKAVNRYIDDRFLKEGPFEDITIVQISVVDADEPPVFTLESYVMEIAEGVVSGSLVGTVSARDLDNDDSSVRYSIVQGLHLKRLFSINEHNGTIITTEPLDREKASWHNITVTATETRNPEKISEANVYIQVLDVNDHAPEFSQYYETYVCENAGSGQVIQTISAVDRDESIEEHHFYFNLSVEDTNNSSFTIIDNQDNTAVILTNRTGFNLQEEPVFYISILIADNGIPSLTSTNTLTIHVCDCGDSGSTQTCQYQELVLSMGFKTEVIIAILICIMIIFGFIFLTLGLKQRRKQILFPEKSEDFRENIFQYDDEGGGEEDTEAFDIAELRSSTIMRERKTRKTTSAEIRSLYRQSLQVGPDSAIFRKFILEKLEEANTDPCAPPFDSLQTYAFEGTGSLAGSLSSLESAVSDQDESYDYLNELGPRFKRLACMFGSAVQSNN
Method: (§2) The following binding assay was completed in presence of 2 mM CaCl2. […] Cells were then washed one time and the amount of cell associated Alexa647-labelled Ab was quantitated by flow cytometry. The experiments included mock transfected controls.

[9] = target: T9, ckCDH19(1-43)::FLAG::ckCDH19(44-141)::huCDH19(142-249)::ckCDH19(250-776), on 293T cells (human/chicken chimera); experiment: FACS, transfected 293T;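 note: antibody binding to chimera-expressing cells with 2 mM CaCl2 present, cell-bound Alexa647-labelled antibody read by flow cytometry, mock-transfected cells serving as control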
T9 construct: Entry holds leader (1-43), Flag tag and CDH19 part; leader left out; also called Hu EC2 (chicken backbone)
T9 chain: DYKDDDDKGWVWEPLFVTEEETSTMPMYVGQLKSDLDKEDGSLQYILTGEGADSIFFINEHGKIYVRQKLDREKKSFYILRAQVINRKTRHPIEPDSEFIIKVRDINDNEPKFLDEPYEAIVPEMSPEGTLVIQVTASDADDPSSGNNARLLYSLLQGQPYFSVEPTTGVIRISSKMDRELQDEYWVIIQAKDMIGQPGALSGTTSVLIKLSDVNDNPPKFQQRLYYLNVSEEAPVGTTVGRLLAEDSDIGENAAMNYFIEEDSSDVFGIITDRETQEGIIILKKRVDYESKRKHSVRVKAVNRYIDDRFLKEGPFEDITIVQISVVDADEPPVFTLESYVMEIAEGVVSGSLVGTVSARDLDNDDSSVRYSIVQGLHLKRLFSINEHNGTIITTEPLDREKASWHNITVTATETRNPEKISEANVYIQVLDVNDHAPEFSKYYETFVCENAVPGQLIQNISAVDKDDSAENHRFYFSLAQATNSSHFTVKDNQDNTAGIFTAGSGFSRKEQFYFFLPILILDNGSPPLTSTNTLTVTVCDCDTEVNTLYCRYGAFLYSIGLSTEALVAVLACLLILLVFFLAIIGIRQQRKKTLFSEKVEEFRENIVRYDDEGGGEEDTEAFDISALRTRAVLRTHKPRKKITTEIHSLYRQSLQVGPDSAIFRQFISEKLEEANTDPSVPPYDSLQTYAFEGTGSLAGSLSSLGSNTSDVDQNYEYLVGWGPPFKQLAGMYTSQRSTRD
Method: as §2

[10] = target: T10, huCDH19(1-43)::FLAG::hu(44-141)::ckCDH19(142-776), on 293T cells (human/chicken chimera); experiment: FACS, transfected 293T;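 note: antibody binding to chimera-expressing cells with 2 mM CaCl2 present, cell-bound Alexa647-labelled antibody read by flow cytometry, mock-transfected cells serving as control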
T10 construct: Entry holds leader (1-43), Flag tag and CDH19 part; leader left out; also called Hu EC1 (chicken backbone)
Method: as §2

[11] = target: T11, ckCDH19(1-43)::FLAG::ckCDH19(44-776), on 293T cells (chicken); experiment: FACS, transfected 293T;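 note: antibody binding to chimera-expressing cells with 2 mM CaCl2 present, cell-bound Alexa647-labelled antibody read by flow cytometry, mock-transfected cells serving as control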
T11 construct: Entry holds leader (1-43), Flag tag and CDH19 part; leader left out; also called Ck EC1-5
T11 chain: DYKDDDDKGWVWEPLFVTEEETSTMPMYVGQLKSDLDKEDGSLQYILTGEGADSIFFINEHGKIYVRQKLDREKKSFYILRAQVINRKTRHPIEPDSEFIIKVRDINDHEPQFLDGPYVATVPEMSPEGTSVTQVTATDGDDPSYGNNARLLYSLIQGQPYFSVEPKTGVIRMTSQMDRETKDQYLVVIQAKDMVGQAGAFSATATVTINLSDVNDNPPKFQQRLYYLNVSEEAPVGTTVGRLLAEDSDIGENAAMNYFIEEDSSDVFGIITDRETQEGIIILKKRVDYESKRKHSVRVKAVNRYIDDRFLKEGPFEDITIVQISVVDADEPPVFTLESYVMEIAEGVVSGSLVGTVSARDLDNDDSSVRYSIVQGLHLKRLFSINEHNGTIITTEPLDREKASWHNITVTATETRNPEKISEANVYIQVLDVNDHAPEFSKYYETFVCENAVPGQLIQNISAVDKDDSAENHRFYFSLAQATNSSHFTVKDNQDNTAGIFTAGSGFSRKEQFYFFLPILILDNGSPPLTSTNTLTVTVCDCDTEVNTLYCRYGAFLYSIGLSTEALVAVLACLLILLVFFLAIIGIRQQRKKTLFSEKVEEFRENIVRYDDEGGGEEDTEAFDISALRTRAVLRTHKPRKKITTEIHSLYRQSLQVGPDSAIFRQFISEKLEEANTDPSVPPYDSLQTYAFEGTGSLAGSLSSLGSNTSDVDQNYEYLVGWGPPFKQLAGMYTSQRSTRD
Method: as §2

[12] = target: T12, muCDH19(44-770), Flag-tagged, on 293T cells (mouse); experiment: FACS, transfected 293T
T12 construct: also called Mu EC1-5
T12 chain: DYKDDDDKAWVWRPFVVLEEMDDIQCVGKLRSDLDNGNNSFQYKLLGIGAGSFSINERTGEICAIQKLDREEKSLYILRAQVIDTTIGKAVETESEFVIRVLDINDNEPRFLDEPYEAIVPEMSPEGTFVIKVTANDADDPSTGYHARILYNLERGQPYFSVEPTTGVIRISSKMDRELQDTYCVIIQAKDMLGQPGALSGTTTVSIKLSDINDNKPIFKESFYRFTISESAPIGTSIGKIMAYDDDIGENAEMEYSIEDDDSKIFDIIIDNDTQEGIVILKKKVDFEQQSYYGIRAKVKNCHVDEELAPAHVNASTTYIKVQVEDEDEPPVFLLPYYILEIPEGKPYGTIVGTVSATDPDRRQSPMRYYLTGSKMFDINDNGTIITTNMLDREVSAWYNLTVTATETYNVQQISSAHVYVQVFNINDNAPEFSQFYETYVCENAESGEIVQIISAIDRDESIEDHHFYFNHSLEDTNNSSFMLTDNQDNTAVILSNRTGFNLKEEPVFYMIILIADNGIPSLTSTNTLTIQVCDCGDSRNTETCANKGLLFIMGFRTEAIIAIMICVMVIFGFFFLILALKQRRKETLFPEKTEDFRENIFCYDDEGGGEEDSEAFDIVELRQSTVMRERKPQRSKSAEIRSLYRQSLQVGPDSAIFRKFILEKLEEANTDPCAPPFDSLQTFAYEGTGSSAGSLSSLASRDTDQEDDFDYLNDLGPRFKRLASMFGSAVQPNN

B1: hu anti-<huCDH19> 4F7 VH::huIgG1z / 4F7 VL::huLLC-C1 (Ab ID 13591) (antibody, V domains shown)
VH: QVQLQESGPGLVKPSETLSLTCTVSGGSISSYSWSWIRQPPGKGLEWIGYIYYSGSTNYNPSLKSRVTISLDTSKNQFSLKLSSVTAADTAVYYCARNWAFHFDYWGQGTLVTVSS
VL: QSVLTQPPSVSGAPGQRVTISCTGSSSNIGTGYDVHWYQQLPGTAPKLLIHGNSNRPSGVPDRFSGSKSGTSASLAITGLQAEDEADYYCQSYDSSLSGWVFGGGTRLTVLG
binding result [1]: binds
binding result [2]: binds

B2: hu anti-<huCDH19> 22D1.1 VH::huIgG1z / 22D1.1 VL::huLLC-C2 (Ab ID 13879) (antibody, V domains shown)
VH: QVQLVQSGAEVKKPGASVRVSCKVSGYTFTSYFIHWVRQAPGQGLEWMGIINPISVSTSYAQKFQGRVTMTRDTSTSTVFMELSSLRSEDTAVYYCARGGIQLWLHLDYWGQGTLVTVSS
VL: QSALTQPPSATGTPGQRVTISCSGSSSNIGSNFVNWYKQLPGTAPKVLIYTNNQRPSGVPDRFSGSKSGTSASLAISGLQSEDESDYYCATWDDSMNGWVFGGGTKLTVLG
binding result [1]: binds
binding result [2]: binds

B3: hu anti-<huCDH19> 25F8.1 VH::huIgG1z / 25F8.1 VL::huLLC-C2 (Ab ID 13880) (antibody, V domains shown)
VH: QVQLVQSGAEVKKPGASVKVSCKASGYTFTSYYIHWVRQAPGQGLEWMGIINPSGGSTRYAQKFQGRVTMTRDTSTSTVFMELSSLRSEDTAVYYCARGGIQLWLHFDYWGQGTLVTVSS
VL: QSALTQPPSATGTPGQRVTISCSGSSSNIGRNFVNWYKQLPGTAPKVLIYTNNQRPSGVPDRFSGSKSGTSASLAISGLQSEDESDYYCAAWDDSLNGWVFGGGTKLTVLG
binding result [1]: binds
binding result [2]: binds
binding result [3]: binds
binding result [4]: binds
binding result [5]: binds

The next lines start with the values.

binding result [3]: binds
binding result [6]: binds
binding result [7]: binds
B4: hu anti-<huCDH19> 4B10 (1-471)(R17G) VH::huIgG1z / 4B10 (1-236)(H45Q,A90T) VL::huKLC (Ab ID 14054) (antibody, V domains shown)
VH: QVQLVESGGGVVQPGGSLRLSCAASGFTFSSYDMHWVRQAPGKGLEWVAVISYDGTNEYYADSVKGRFTISRDTSKNTLYLQMNSLRAEDTAVYYCARERYFDWSFDYWGQGTLVSVSS
VL: EIVLTQSPGTLSLSPGERATLSCRASQSVSNTYLAWYQQRPGQAPRLLIYGASSRATGIPDRFSGSGSGTDFTLTISSLEPEDFAVYYCQQYSNSWTFGQGTKVEIKR
notes: Engineered variant of 4B10

binding result [8]: no binding (tested: 5 ug/ml)
binding result [9]: no binding (tested: 5 ug/ml)
binding result [10]: binds
binding result [11]: no binding (tested: 5 ug/ml)
binding result [12]: no binding (tested: 5 ug/ml)
B5: hu anti-<huCDH19> 26F12.1 VH::huIgG1z / 26F12.1 VL::huLLC-C2 (Ab ID 13881) (antibody, V domains shown)
VH: QVQLVQSGAEVKKPGASVKVSCKASRYTFTNYYMSWVRQAPGQGLEWMGIINPSGGDSTYAQKFQGRLTMTGDTSTSTVYMELSSLRSEDTAVYYCARGGIQLWLHFDYWGQGTLVTVSS
VL: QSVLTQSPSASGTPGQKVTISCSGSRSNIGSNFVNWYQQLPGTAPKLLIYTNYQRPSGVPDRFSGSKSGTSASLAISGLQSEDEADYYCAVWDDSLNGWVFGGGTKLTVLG
notes: also called 27B3
